Here are results for one substance from patent US20210122824A1.

Holding throughout (experiment): flow cytometry, HEK293F cells transiently expressing the target, 100 nM antibody, PE anti-human Fc; Mean (PE-A against FITC-A, GFP surrogate)
Experiment [1] has as its target human B7-H3 expressed on HEK293F cells (human) (UniProt Q5ZPR3).
The target in experiment [2] is human CTLA4 expressed on HEK293F cells (human) (UniProt P16410).
In experiment [3] the target is human LAG3 expressed on HEK293F cells (human) (UniProt P18627).
Chain of human LAG3 expressed on HEK293F cells (human) (P18627 23-525): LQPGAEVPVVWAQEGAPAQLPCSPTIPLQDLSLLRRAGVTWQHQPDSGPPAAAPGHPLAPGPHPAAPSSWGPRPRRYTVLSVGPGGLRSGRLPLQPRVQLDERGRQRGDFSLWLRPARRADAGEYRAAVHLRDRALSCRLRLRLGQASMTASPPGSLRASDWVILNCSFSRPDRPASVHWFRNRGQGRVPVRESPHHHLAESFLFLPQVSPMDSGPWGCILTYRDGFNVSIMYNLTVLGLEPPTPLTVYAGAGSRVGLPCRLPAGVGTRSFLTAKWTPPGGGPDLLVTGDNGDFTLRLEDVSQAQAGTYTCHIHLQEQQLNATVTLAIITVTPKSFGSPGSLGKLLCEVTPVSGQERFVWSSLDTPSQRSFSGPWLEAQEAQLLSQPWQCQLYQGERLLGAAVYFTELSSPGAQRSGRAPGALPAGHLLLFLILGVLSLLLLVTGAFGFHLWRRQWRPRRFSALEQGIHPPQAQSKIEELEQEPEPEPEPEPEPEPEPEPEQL
The target of experiment [4] is human PD-L1 expressed on cell surface (human) (UniProt Q9NZQ7).
Chain of human PD-L1 expressed on cell surface (human) (Q9NZQ7 19-290): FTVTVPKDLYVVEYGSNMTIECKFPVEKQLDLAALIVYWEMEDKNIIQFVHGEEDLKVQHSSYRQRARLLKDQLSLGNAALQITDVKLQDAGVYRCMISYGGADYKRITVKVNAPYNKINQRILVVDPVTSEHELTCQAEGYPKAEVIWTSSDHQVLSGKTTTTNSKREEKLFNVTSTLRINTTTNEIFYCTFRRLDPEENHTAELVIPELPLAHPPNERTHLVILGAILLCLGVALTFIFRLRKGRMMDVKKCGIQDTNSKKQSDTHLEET
The target in experiment [5] is human PD1 expressed on HEK293F cells (human) (UniProt Q15116).
Chain of human PD1 expressed on HEK293F cells (human) (Q15116 25-288): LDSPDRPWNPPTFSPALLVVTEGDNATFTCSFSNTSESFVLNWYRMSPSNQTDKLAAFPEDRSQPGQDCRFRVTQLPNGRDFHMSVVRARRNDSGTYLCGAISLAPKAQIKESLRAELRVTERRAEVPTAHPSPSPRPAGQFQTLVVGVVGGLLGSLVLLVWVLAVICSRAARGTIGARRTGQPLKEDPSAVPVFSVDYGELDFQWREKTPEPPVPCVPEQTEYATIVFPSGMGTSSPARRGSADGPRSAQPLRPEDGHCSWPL
Experiment [6] deals with human TIM3 expressed on HEK293F cells (human) (UniProt Q8TDQ0).
In experiment [7] the target is mouse PD-L1 expressed on HEK293F cells (mouse) (UniProt Q9EP73).
Chain of mouse PD-L1 expressed on HEK293F cells (mouse) (Q9EP73 19-290): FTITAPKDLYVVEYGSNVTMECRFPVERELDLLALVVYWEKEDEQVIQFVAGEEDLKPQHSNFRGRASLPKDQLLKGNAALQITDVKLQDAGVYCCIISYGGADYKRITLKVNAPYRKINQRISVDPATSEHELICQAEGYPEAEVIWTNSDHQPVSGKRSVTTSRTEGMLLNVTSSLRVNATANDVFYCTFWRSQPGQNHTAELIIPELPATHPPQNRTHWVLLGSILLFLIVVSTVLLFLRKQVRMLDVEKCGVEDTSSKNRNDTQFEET
The target in experiment [8] is rhesus PD-L1 expressed on HEK293F cells (rhesus) (UniProt F6VEW6).

Chain of human CTLA4 expressed on HEK293F cells (human) (P16410 36-223): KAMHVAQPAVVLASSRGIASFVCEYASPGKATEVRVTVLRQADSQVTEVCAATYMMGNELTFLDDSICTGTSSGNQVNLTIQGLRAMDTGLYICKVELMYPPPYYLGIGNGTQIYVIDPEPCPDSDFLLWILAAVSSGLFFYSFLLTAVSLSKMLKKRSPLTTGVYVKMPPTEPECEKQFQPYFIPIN
Chain of human B7-H3 expressed on HEK293F cells (human) (Q5ZPR3 29-534): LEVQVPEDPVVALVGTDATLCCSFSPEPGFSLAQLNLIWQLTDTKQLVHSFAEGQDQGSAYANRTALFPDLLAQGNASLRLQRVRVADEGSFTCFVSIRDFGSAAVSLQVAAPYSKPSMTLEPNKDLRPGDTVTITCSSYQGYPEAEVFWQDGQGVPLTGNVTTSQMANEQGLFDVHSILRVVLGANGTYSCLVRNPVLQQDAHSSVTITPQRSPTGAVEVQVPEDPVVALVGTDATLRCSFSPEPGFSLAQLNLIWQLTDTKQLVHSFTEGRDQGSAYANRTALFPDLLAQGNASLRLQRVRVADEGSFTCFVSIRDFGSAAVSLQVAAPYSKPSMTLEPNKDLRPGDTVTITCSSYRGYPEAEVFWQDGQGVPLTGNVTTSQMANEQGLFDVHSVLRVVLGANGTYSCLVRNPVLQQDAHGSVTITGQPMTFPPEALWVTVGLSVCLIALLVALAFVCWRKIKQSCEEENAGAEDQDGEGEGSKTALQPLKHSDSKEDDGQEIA

For the substance Isotype control (antibody), the Mean in experiment [1] came to 2690; in experiment [2], 2480; in experiment [3] it was 2440; in experiment [4], 2470; in experiment [5] it was 3050; in experiment [6], 2280. The results for the Mean in experiment [7] and in experiment [8] were 3030 and 2520, respectively.
